This data set is described as follows: yeast display, Sf9 membrane polyspecificity reagent, FACS + sequencing; frameworks hold sequencing errors. Put shortly: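 Galactose-induced (36–48 hours) yeast carrying a synthetic nanobody display library were exposed to 10% biotinylated, detergent-solubilized Sf9 membrane reagent at 4 °C for 1 hour. FACS followed streptavidin microbead enrichment, using low and high (top ~1%) gates for expression (anti-HA) and reagent binding (streptavidin). Colony PCR, MiSeq 2 × 250 sequencing and CDR-length filtering followed. Labels for polyreactivity reflect the gate of origin.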
On to “QVQLVESGGGLVQAGGSLRLSCAASGSIFVRYAMGWYRQAPGKERELVAVISSDGRTYYADSVKGRFTISRDNAKNTVYLQMNSLKPEDTAVYYCAKRAWGFGGYDYWGQGTQVTVSS”, for which the “polyreactivity (PSR sort gate)” value was “low polyreactivity”.

As to “QVQLVESGGGLVQAGGSLRLSCAASGSIFVRYTMGWYRQAPGKETELVAAISWGGGSTYYADSVKGRFTISRDNAKNSVYLQMNSLKPEDTAVYYCNKRYIQLYDYWGQGTKVTVSS”, the “polyreactivity (PSR sort gate)” value is “low polyreactivity”.

In the case of “QVQLVESGGGLVQAGGSLRLSCAASGSIFVSNAMGWYRQAPGKERELVAAITSSGSTDYADSVKGRFTISRDNAKNTVYLQMNSLKPDDTAVYYCAAESDHTFFLWSLNDSWGQGTQVTVSS”, the “polyreactivity (PSR sort gate)” value is on record as “low polyreactivity”.

Turning to “QVQLVESGGGLVQAGGSLRLSCAASGSIFVSNTMGWYRQAPGKEREMVASIRETAGSTNYADSVKGRFTISRDYAKNTFYLQMNSLKPEDTAVYYCAARYSPTRYHYGYWGQGTQVTVSS”, the “polyreactivity (PSR sort gate)” value is “low polyreactivity”.

Take “QVQLVESGGGLVQAGGSLRLSCAASGSIFVTNPMGWYRQAPGKERELVAAIRGGGGSTYYADSVKGRFTISRDNAKNTVYLQMNSLKPEDTAVYYCNADRRGYLQSEMDYWGQGTQVTVSS”: the “polyreactivity (PSR sort gate)” value is on record as “low polyreactivity”.

Turning to “QVQLVESGGGLVQAGGSLRLSCAASGSIFVTYAMGWYRQAPGKERELVAAISTSGGSTYADSVKGRFTISRDNAKNTVYLQMNSLKPEDTAVYYCNADDPGYAVPWYWFKSDYWGQGTQVTVSS”, the “polyreactivity (PSR sort gate)” value is “low polyreactivity”.

In the case of “QVQLVESGGGLVQAGGSLRLSCAASGSIFVTYAMGWYRQAPGKERELVAVITWGGGSTYYADSVKGRFTISRDNAKNTVYLQMNSLKPEDTAVYYCAKDSYYYRRDVTVDYWGQGTQVTVSS”, the “polyreactivity (PSR sort gate)” value is given as “low polyreactivity”.

Take “QVQLVESGGGLVQAGGSLRLSCAASGSIFVTYDLGWYRQAAGKERELVAGISGSGSTNYADSVKGRFTISRDNAKNTVYLQMNSLKPEDTAVYYCNTDGLWSAEYDYWGQGTQVTVSS”: the “polyreactivity (PSR sort gate)” value was “low polyreactivity”.

Turning to “QVQLVESGGGLVQAGGSLRLSCAASGSIFVVYAMGWYRQAPGKERELVASIRTGGSTNYADSVKGRFTISRDNAKNTVYLQMNSLKPEDTAVYYCAAASWNSNSHYYVARYYYWGHGTQVTVSS”, the “polyreactivity (PSR sort gate)” value is recorded as “high polyreactivity”.

“QVQLVESGGGLVQAGGSLRLSCAASGSIFVVYGMGWYRQAPGKERELVAAISGGITNYADSVKGRFTISRDNAKNTVYLQMNSLKPEDTAVYYCATVDGAYQYTYDYWGQGTQVTVSS”: the “polyreactivity (PSR sort gate)” value was “low polyreactivity”.

In the case of “QVQLVESGGGLVQAGGSLRLSCAASGSIFVVYSMGWYRQAPGKERELVAAISWGIGSTYYADSVKGRFTISRDNAKNTVYLQMNSLKPEDTALYYCAADTDIVLYDYWGQGTQVTVSS”, the “polyreactivity (PSR sort gate)” value is on record as “low polyreactivity”.

“QVQLVESGGGLVQAGGSLRLSCAASGSIFVWNAMGWYRQAPGKERELVAAISYTDGSTYYADSVKGRFTISRDNAKNTVYLQMNSLKPEDTAVYYCAAAITPSYTGSEYDYWGQGTQVTVSS”: the “polyreactivity (PSR sort gate)” value is listed as “low polyreactivity”.

On to “QVQLVESGGGLVQAGGSLRLSCAASGSIFVWNAMGWYRQAPGKERELVARIRYSSNTYYADSVKGRFTISRDNAKNTVYLQMNSLKPEDTAVYYCAAGSTRYAGWTYNYWGQGTQVTVSS”, for which the “polyreactivity (PSR sort gate)” value is on record as “high polyreactivity”.

On to “QVQLVESGGGLVQAGGSLRLSCAASGSIFVWYAMGWYRQAPGKERELVAAINWSGGRTYYADSVKGRFTISRDNAKNTVYLQMNSLKPEDTAVSYCNKVVPGYSAAKYDYWGQGTQVTVSS”, for which the “polyreactivity (PSR sort gate)” value is “high polyreactivity”.

As for “QVQLVESGGGLVQAGGSLRLSCAASGSIFVWYAMGWYRQAPGKERELVAAISSSGDNTYYADSVKGRFTISRDNAKNTVYLQMNSLKPEDTAVYYCAAKSYWGQGTQVTVSS”, the “polyreactivity (PSR sort gate)” value was “high polyreactivity”.

As for “QVQLVESGGGLVQAGGSLRLSCAASGSIFVYNTMGWYREAPGKERELVASITYSGGSTYYADSVKGRFTISRDNAKNTVYLQMNSLKPEDTAVYYCNTDDVALQWDWYPYPYDYWGQGTQVTVSS”, the “polyreactivity (PSR sort gate)” value is on record as “low polyreactivity”.

As for “QVQLVESGGGLVQAGGSLRLSCAASGSIFVYNVMGWYRQAPGKERELVAAINYSGVSTYYADSVKGRFTISRDNAKNTVYLQMNSLKPEDTAVYYCAAEYEFGHSSTPMDYWGQGTQVTVSS”, the “polyreactivity (PSR sort gate)” value is listed as “high polyreactivity”.

In the case of “QVQLVESGGGLVQAGGSLRLSCAASGSIFVYYAMGWYRQAPGKEREFVATISSSGGSTYYADSVKGRFTISRDNAKNTVYLQRNSLKPEDTAVYYCNRRYFFFYGHSFDYWGQGTQVTVSS”, the “polyreactivity (PSR sort gate)” value is given as “high polyreactivity”.

As for “QVQLVESGGGLVQAGGSLRLSCAASGSIFVYYAMGWYRQAPGKERELVAAISKTGGRTYYADSVKGRFTISRDNAKNTVYLQMNSLKPEDTAVYYCAARYTIRYKRYDYWGQGTQVTVSS”, the “polyreactivity (PSR sort gate)” value is on record as “high polyreactivity”.

As to “QVQLVESGGGLVQAGGSLRLSCAASGSIFVYYGMGWYRQAPGKEWELVAAMSSGGSSHYADSVKGRFTISRVTAKNSVYLQMNSLKPEDTAVYYCPADGFFWQRSYTRYYYWGQGSQVTVSS”, the “polyreactivity (PSR sort gate)” value is “low polyreactivity”.

Regarding “QVQLVESGGGLVQAGGSLRLSCAASGSIFVYYVMGWYRQAPGKERELVAAISSGGRTYYADSVKGRFTISRDNAKNTVYLQMNSLKPEDTAVYYCAARPIRPASEVNYWGQGTQVTVSS”, the “polyreactivity (PSR sort gate)” value is given as “low polyreactivity”.

Take “QVQLVESGGGLVQAGGSLRLSCAASGSIFWANAMGWYRPAPGKERELVAAINFRATITYYPASVKGRFTISRDNAKNTVYLQMNSRKPEDTAVYYCAKAQAQRYSFYYWGQGTQVTVSS”: the “polyreactivity (PSR sort gate)” value is given as “high polyreactivity”.

Take “QVQLVESGGGLVQAGGSLRLSCAASGSIFWFNAMGWYRQAPGKEREFVASISRSGGTTYYADSVKGRFTISRDTAKNTVYLQMYSLKPEDTAVYYCNARAYGNGLGTGYFGKHRYDYWGQGTQVTVSS”: the “polyreactivity (PSR sort gate)” value is “low polyreactivity”.

Regarding “QVQLVESGGGLVQAGGSLRLSCAASGSIFWFNAMGWYRQAPGKERELVAAINSSGGRTYYADSVKGRFTISRDNAKNTVYLQMNSLKPEDTAVYYCNALLWGNPASYGYWGQGTQVTVSS”, the “polyreactivity (PSR sort gate)” value was “high polyreactivity”.

Take “QVQLVESGGGLVQAGGSLRLSCAASGSIFWFNAMGWYRQAPGKERELVAAITITGGSTYYADSVKGRFTISRDNAKNTVYLQMNSLKPEDTAVYYCAAGTGSRDDYWGQGTQVTVSS”: the “polyreactivity (PSR sort gate)” value is recorded as “high polyreactivity”.

For the sequence “QVQLVESGGGLVQAGGSLRLSCAASGSIFWGNAMGWYRQAPGKERELVAAIRRGTSTYYADSVKGRFTISRDNAKNTVYLQMNSLKPEDTAVYYCAAEGWTTPTPTSDDNQWWYDYWGQGTQVTVSS”, the “polyreactivity (PSR sort gate)” value was “high polyreactivity”.

With “QVQLVESGGGLVQAGGSLRLSCAASGSIFWGNDMGWYRQAPGKERELVAGIRNSGTSTYYADSVKGRFTISRDHAKNTVYLQMNSLKPEDTAVYYCAAADGRQYSRYYWRGHDYWGQGTQVTVSS”, the “polyreactivity (PSR sort gate)” value is reported as “low polyreactivity”.

Take “QVQLVESGGGLVQAGGSLRLSCAASGSIFWGTAMGWERQAPGKERELVAAISWSGGSTYYADSVKGRFTISRDNAKNTVDLQMHSLKPEDTAVYYCAARFKRVGSIPYYYWGQGTQVTVSS”: the “polyreactivity (PSR sort gate)” value is reported as “high polyreactivity”.

For “QVQLVESGGGLVQAGGSLRLSCAASGSIFWGYAMGWYRQAPGKERELVAAISSSGGNTYYADSVKGRFTISRDNAKNTVYLQMNSLKPEDTAVYYCAATPEFYGGKITDVYSQYGYWGQGSQVTVSS”, the “polyreactivity (PSR sort gate)” value was “low polyreactivity”.

For “QVQLVESGGGLVQAGGSLRLSCAASGSIFWINAMGWCRQAPGKEREFVADIDVSGGSTYYADSVKGRFTISRDNAKNTVYLQMNSLKPEDTAVYYCAADDYWAYLYYKTSEYYYWGQGTQVTVSS”, the “polyreactivity (PSR sort gate)” value is “low polyreactivity”.
